Measurements as given in paper PMC314469, “Protein Interaction Networks by Proteome Peptide Scanning” (PLoS Biology, 2004).

T1: Rvs167 SH3 (RV167_YEAST), P39743
T1 chain: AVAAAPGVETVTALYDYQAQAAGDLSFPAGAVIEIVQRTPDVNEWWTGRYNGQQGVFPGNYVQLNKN

T2: Boi2 SH3 (BOI2_YEAST), P39969
T2 chain: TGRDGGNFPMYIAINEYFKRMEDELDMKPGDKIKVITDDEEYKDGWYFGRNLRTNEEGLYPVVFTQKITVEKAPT

T3: Yfr024 SH3 (LSB3_YEAST), P43603
T3 chain: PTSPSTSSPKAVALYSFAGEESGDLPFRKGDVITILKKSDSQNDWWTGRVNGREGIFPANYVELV

T4: Yhr016c SH3 (YSC84_YEAST), P32793
T4 chain: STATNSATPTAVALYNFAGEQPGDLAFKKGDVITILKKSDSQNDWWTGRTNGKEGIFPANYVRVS

T5: Boi1 SH3 (BOI1_YEAST), P38041
T5 chain: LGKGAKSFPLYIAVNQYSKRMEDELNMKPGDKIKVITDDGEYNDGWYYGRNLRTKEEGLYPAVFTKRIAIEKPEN


Legend:
Test in all cases: SPOT array
[1] = biological target: T1, Rvs167 SH3 (RV167_YEAST), P39743
[2] = biological target: T2, Boi2 SH3 (BOI2_YEAST), P39969
[3] = biological target: T3, Yfr024 SH3 (LSB3_YEAST), P43603
[4] = biological target: T4, Yhr016c SH3 (YSC84_YEAST), P32793
[5] = biological target: T5, Boi1 SH3 (BOI1_YEAST), P38041

normalised SPOT signal, Boehringer light units (BLU); mean over the file's lines of this peptide [1]	normalised SPOT signal, Boehringer light units (BLU); mean over the file's lines of this peptide [2]	normalised SPOT signal, Boehringer light units (BLU); mean over the file's lines of this peptide [3]	normalised SPOT signal, Boehringer light units (BLU); mean over the file's lines of this peptide [4]	normalised SPOT signal, Boehringer light units (BLU); mean over the file's lines of this peptide [5]	Binder
49.8	88.2	5310	314	90.9	VKKPARPWRAKPGQ [YKL220C 450-463]
10	10.1	812	158	107	VILPQIPPKLTFIL [YOR067C 374-387]
48.3	134	852	280	90.1	VMKPKSPDKEFFDA [YJR066W 1483-1496]
27.7	27.7	138	92.9	56.4	VHGPVIPMKALEIA [YPR196W 383-396]
59	41.9	1090	246	44.6	VKEPSFPSRSAFSP [YMR191W 432-445]
34.3	50.6	186	131	255	VGNPEGPEKPNKKF [YKL060C 315-328]
512	135	16100	1680	2050	VDFPIFPRRFAKVE [YJL091C 152-165]
24.4	45.2	0	159	39.5	VERPSSPTKTITTE [YML109W 711-724]

More lines, now with the values behind:

Binder	normalised SPOT signal, Boehringer light units (BLU); mean over the file's lines of this peptide [1]	normalised SPOT signal, Boehringer light units (BLU); mean over the file's lines of this peptide [2]	normalised SPOT signal, Boehringer light units (BLU); mean over the file's lines of this peptide [3]	normalised SPOT signal, Boehringer light units (BLU); mean over the file's lines of this peptide [4]	normalised SPOT signal, Boehringer light units (BLU); mean over the file's lines of this peptide [5]
VIMPEGPRKSVSMA [YJL005W 424-437]	176	232	1120	358	75.3
VDAPINPTKILTFI [YBR163W 375-388]	67.9	69.3	0	34	52.9
VIRPGVPTKFTKKQ [YDL171C 1275-1288]	58.1	63.3	202	125	121
VHGPGVPVKTLEIA [YGR288W 386-399]	52.7	56.6	43.4	116	114
VKHPMKPFRLMLTD [YGL194C 43-56]	358	203	3950	3110	101
VFLPTAPSKHMDFA [YCR042C 478-491]	208	46.3	242	44.5	100
VDPPFMPFRDAGYS [YFR028C 120-133]	23.3	37.7	579	-0	70.9
VFSPTNPLRIKIAR [YGR217W 326-339]	1.8	16.2	648	151	110
VENPFLPAKEERTG [YIL115C 910-923]	0	15.7	82.3	188	7.6
VHGPGIPMKSLEVA [YBR297W 381-394]	43.5	49.9	32.9	381	44.3
VLEPSKPYKKNPFM [YBR284W 663-676]	5.8	84	238	127	116
VHDPNIPLRPKEII [YGR184C 643-656]	51.5	57.8	562	110	22.9
VETPPKPIKKDVRF [YDR085C 535-548]	86.3	70.6	677	372	65
VKRPLSPTRINGKS [YDR379W 155-168]	445	49	2290	499	208
